Measured values reported in the supplement of paper PMC9170038.

Test system: MS2 coat protein
Experiment: apparent KD of MS2 coat protein; designed switch direction (-1 OFF switch, 1 ON switch): -1; higher = weaker reporter binding
Method in brief: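 On Illumina chips, designed RNA switches with common flanks were made by stalled E. coli RNA polymerase. Titrations with SNAP-549-labelled MS2 coat protein, doubling from 0.7 or 1.5 nM to 3 µM, were done with no input, with 200 uM small-molecule ligand, or with an oligonucleotide input. Apparent KD is the median per design over clusters, from curve fits of normalised cluster fluorescence.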

[1] = input ligand: microRNA oligo, concentration not stated
[2] = Eterna round: R95, input ligand: microRNA oligo, concentration not stated
[3] = Eterna round: R95, input ligand: FMN 200 uM
[4] = Eterna round: R95, input ligand: none

Row | Sequence | apparent KD of MS2 coat protein (input ligand: FMN 200 uM) [nM] | apparent KD of MS2 coat protein (input ligand: none) [nM] | apparent KD of MS2 coat protein [1] [nM] | apparent KD of MS2 coat protein [2] [nM] | apparent KD of MS2 coat protein [3] [nM] | apparent KD of MS2 coat protein [4] [nM]
1 | CCAUGAUAAGGAUAUUGAAGGUUCGACAUGAGGAUCACCCAUGUUAUGUUGGAAAAGGGACAAGAAGGUAUUAAUU [salish99_ex5_r4_221] (Eterna round: R97, puzzle: Exclusion 5) | 48.2 | 45.8 | – | – | – | –
2 | AACCUGAGGCUUUGCUUUAGGUGUACAUGAGGAUCACCCAUGUAGGAUAUGGUAGGCUUUGCUUACCAGAAGGACAUUAUGAUG [JL ENG3 1.17] (Eterna round: R96, puzzle: Exclusion NG 3) | 75.1 | 52.8 | 44.3 | – | – | –
3 | UGCUGACGAGGAUAUACAUGAGGAUCACCCAUGUUGGUUCAGCGACGAUAGUCGCAAUGUAGAAGGUGUCAGCA [E3/9-B2] (Eterna round: R97, puzzle: Exclusion 3) | 748 | 97.2 | – | – | – | –
4 | AGAUCACAUGAGGAUCACCCAUGUCAGGAUAUCGUCACUGGAGCCUCGGCUCCAGUGACGAGAAGGGAUAAUUA [E1/4-A2] (Eterna round: R97, puzzle: Exclusion 1) | 116 | 69 | – | – | – | –
5 | UACGGGUCAGGAUAUGCGAGAGAGUGGGAAAUAGGAAGGUAGCAGAAGGGACAUGAGGAUCACCCAUGUGAGGC [JR_Exclu4_Sub099] (puzzle: Exclusion 4) | – | – | – | 23.8 | – | –
6 | UUGUGCACGCUGCGGUCCUACAUGAGGAUCACCCAUGUGGUCUGGUGGCGUGGGUCACCGGACUUGGCUCGUCUUGU [salish99_S_TOV1_R5_060] (Eterna round: R97, puzzle: Sensor, turn-off variant 1) | 36.2 | 42.3 | – | – | – | –
7 | UUGUACAUAGGAUAUAGUUGUUUGUACAUGAGGAUCACCCAUGUUAUGUAUGUUUUGCUUCUAGAAGGAUGUUGUU [JR_E5_Sub004] (Eterna round: R96, puzzle: Exclusion 5) | 28.5 | 34.5 | 25.8 | – | – | –
8 | GCAGCAAACUCUAUUAAAACCACAUGAGGAUCACCCAUGUCUCAGGAUAUGGUCUGGAUUACAGGCCAGAAGGGAGAAAGCUGC [Eli exng3 - 054] (Eterna round: R96, puzzle: Exclusion NG 3) | 15 | 15.1 | 10.9 | – | – | –
9 | CUUCGGGCAGGAUAUGCUGUUUGUGACAUGAGGAUCACCCAUGUGAUGCAGUUUGGGUGUGCAGAAGGGCCUGAGU [JR_E5_Sub031] (puzzle: Exclusion 5) | – | – | – | 43.7 | – | –
10 | AUAAAUCAUGUAGGAUAUGCGUGGCAAAGCUAUGCAGAAGGACAUGAGGAUCACCCAUGUUCUUCCGUCUGCGUACAGACGGAA [Mat - Exclusion NG 1 - Mod of JL - D40] (Eterna round: R96, puzzle: Exclusion NG 1) | 418 | 37.3 | 31.4 | – | – | –
11 | AUGCCACAUGAGGAUCACCCAUGUGAGGAUAUGCUAGUAUUCCUAACGGCCGAUGCAGGCAGAAGGCGCUCGGG [Eternabot (L1) Solution 73] (Eterna round: R97, puzzle: Exclusion 1) | 19.5 | 24.5 | – | – | – | –
12 | GAGAUGUGAGGAUAUCUAGACCGCGGAAGAGCCGCAGUCCGAGAGAAGGCACAUGAGGAUCACCCAUGUGAUGA [Teorgeor] (puzzle: Exclusion 4) | – | – | – | 36 | – | –
13 | CUUAAAAGGAAGGAUAUGCUAGACGAAAGUCUAGCAGAAGGUCCUACAUGAGGAUCACCCAUGUGUCCUAUAAG [Mat - Exclusion 6 - Eli Mod - D13] (Eterna round: R97, puzzle: Exclusion 6) | 72.4 | 81.1 | – | – | – | –
14 | UUAUGGCGAGAGGAUAUUCUGCUACGGCCCGGAGAAGAAGGUUUGACAUGAGGAUCACCCAUGUGGUCGCUCCU [Eternabot (L2) Solution 29] (Eterna round: R97, puzzle: Exclusion 6) | 138 | 238 | – | – | – | –
15 | AAUCAUAGGUAAGGAUAUGAAGAUCUGGUGGUGACAUGAGGAUCACCCAUGUGAAAACGAUGAGAUCAGAAGGUACAAUAUGAA [AK ExNG2-4] (Eterna round: R96, puzzle: Exclusion NG 2) | 108 | 88.3 | 18 | – | – | –
16 | CUUAGACAUGAGGAUCACCCAUGUGAGGAUAUGAUGCGGGAGACGAAAAGUUUCAGCAUCAGAAGGCACAUAUG [mod of disincluded 3 v.3 (my top score 87 - 34% A's)] (puzzle: Exclusion 1) | – | – | – | 175 | 349 | 172

Row | Sequence | apparent KD of MS2 coat protein (input ligand: FMN 200 uM) [nM] | apparent KD of MS2 coat protein (input ligand: none) [nM] | apparent KD of MS2 coat protein [1] [nM] | apparent KD of MS2 coat protein [2] [nM] | apparent KD of MS2 coat protein [3] [nM] | apparent KD of MS2 coat protein [4] [nM]
17 | ACCUCACAUGAGGAUCACCCAUGUCAGGAUAUAUUGUGCAAGCGCCGUGGCGUAUGUAGUAGAAGGGACGAAAC [Eternabot (L1) Solution 77] (Eterna round: R97, puzzle: Exclusion 1) | 18.3 | 17.8 | – | – | – | –
18 | GAUUAUGCGAGCUUUAGGGACAUGAGGAUCACCCAUGUUCGUCUUAUUGAUCUAGGUACGCUGACGUACCUAGAUCU [JL-sv1-2.35 Brourd mod] (puzzle: Sensor v3, turn-off variant 1) | – | – | – | 33.7 | 21.9 | 21.8
19 | ACUAGAUGAGGAUAUGCAUGUUUUCAUGUUCUUCUAGAUUAACAUGAGGAUCACCCAUGUAGAAGGCGUCUUUU [Exclusion 2 - 31] (puzzle: Exclusion 2) | – | – | – | 22.4 | – | –
20 | AAAUUAAGUGUGAGGAUAUGCUGGUCCUUGGAUCAGCAGAAGGCACAUGAGGAUCACCCAUGUAAUAUAUUUAA [Mat - Exclusion 4 - JL Mod - D49] (puzzle: Brourd's mod of Exclusion 4) | – | – | – | 74.2 | 439 | 144
21 | GUUUCACAUGAGGAUCACCCAUGUGAGGAUAUGUUUUUAAAAGCAAUAGUUUUUGAAAACAGAAGGCGCGUGAU [JR_Exc1_Sub008] (Eterna round: R97, puzzle: Exclusion 1) | 71.6 | 60.5 | – | – | – | –
22 | CCGUCACAUGAGGAUCACCCAUGUCAGGAUAUCUCAGUGCAUCCACACGGACGCAUCAAGAGAAGGGACAAAAC [Vinxlusion 6 - Jieux - Exclusion 1] (Eterna round: R97, puzzle: Exclusion 1) | 47.9 | 34.8 | – | – | – | –
23 | CCCUCGGGAGGAUAUGGGUGUUUUUACAUGAGGAUCACCCAUGUGGAGUAGCAUGUGGGUCCAGAAGGCCCAAGGG [-27.5, -25.8 kcal, 22% A] (Eterna round: R97, puzzle: Exclusion 5) | 873 | 815 | – | – | – | –
24 | AAAAAGGUAGGAUAUCCACUUUAAAACAUGAGGAUCACCCAUGUAAAACCACAUGAAAAAGGAGAAGGACCAAAAA [AK-MS2ROC-r4-exclusion5-2] (Eterna round: R97, puzzle: Exclusion 5) | 24.7 | 26 | – | – | – | –
25 | AGUAACCGUCACGAAAGUGAUGGUUACGCAAGCAAUUGUACAUGAGGAUCACCCAUGUCCUCAUUUGCUCGUCUUAU [Sensor 3 - 42] (puzzle: Sensor v3, turn-off variant 2) | – | – | – | 378 | 313 | 357
26 | CCUUCCCGAGGAUAUACAUGAGGAUCACCCAUGUGAUCCUAAGGCUGAUCAAGCCUAUGUAGAAGGCGCAAAUC [salish99_ex3_r4_006] (Eterna round: R97, puzzle: Exclusion 3) | 35.1 | 38.4 | – | – | – | –
27 | ACAAGCAGAGAGUAAAUGGACAUGAGGAUCACCCAUGUGAGUCCAAGGAGAUAAGAUAUUAAAAAGGCUCGUCUUAU [AK-miRNA-r3-19] (Eterna round: R97, puzzle: Sensor, turn-off variant 1) | 112 | 98.3 | – | – | – | –
28 | UAUUACCCAAGCAGGUCCCACAUGAGGAUCACCCAUGUGCUCGUCUUAUAACGAUCUGUGGGAAAACCUACGGAUCG [Elimod 20 - Jieux - Sensor, turn-off variant 1] (Eterna round: R97, puzzle: Sensor, turn-off variant 1) | 27.7 | 34.4 | – | – | – | –
29 | CUUUUGUGAGGAUAUUAGUAGUAAAUAAAUAAAAUUAUUACUGAGAAGGCACAUGAGGAUCACCCAUGUUCCUC [salish99_ex4_r3_062] (puzzle: Exclusion 4) | – | – | – | 35.1 | – | –
30 | CGGCAAUCCUAGGAUAUGCUAGACGAAAGUCUAGCAGAAGGAGGAACAUGAGGAUCACCCAUGUGUCCUAGCCG [Eli x6 4.02] (Eterna round: R97, puzzle: Exclusion 6) | 23.5 | 20.2 | – | – | – | –
31 | AACUCUGAGAAGGAUAUUGUACGGGAAAUGGUACAAGAAGGUUUCACAUGAGGAUCACCCAUGUCGAAUAGUGA [EX6 #69] (Eterna round: R97, puzzle: Exclusion 6) | 34.7 | 22.9 | – | – | – | –
